How the values were obtained:
[1] = biological target: T1, untagged LaminB1 (human, UniProt P20700 1-586); assay: pull-down; amylose-MBP matrix alone or coupled with MBP-Jacob proteins, washed in 20 mM Tris pH 7.5, 1 mM DTT, 3 mM EDTA, 100 mM NaCl, 0.3% TritonX-100; incubated with 20 μg of untagged LaminB1 or untagged CRM1 overnight at 4 °C; Western blot; details: both partners purified
T1 construct: Lamin B1, human, subcloned from mTagRFP-hLaminB1 into the Intein-pMXB10 vector between NdeI and XhoI; Cloning through the XhoI site may leave a few vector residues at the C-terminus after the intein is cut off (surmise); also called recombinant LaminB1; LaminB1(PMXB10); source: E. coli SHuffle (C3026), purified (chitin resin, released with 50 mM DTT)
T1 sequence (looked up): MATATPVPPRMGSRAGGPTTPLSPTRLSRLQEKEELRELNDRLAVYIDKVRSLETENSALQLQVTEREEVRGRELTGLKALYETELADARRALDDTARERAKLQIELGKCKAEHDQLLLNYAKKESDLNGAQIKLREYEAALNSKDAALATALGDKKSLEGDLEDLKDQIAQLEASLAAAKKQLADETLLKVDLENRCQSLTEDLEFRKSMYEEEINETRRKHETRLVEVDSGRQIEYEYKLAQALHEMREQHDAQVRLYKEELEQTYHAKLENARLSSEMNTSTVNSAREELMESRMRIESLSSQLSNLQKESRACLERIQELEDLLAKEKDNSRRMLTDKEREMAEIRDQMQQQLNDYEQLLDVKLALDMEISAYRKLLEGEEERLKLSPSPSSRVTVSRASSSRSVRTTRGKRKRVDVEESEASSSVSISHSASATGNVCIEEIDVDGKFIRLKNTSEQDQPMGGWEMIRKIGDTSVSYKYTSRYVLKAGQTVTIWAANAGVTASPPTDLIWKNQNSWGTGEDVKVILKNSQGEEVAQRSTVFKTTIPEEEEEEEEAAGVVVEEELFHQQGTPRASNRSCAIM

[2] = biological target: T2, untagged-CRM1 (human, UniProt O14980 1-1071); assay: as above; details: both partners purified
T2 construct: CRM1 (Exportin 1), human, subcloned from 3xFLAG-hCRM1 into the Intein-pMXB10 vector between NdeI and XhoI; Cloning through the XhoI site may leave a few vector residues at the C-terminus after the intein is cut off (surmise); also called recombinant CRM1; CRM1 (PMXB10); source: E. coli ExpressLysY/Iq, purified (chitin resin, released with 50 mM DTT)
T2 sequence (O14980 whole entry): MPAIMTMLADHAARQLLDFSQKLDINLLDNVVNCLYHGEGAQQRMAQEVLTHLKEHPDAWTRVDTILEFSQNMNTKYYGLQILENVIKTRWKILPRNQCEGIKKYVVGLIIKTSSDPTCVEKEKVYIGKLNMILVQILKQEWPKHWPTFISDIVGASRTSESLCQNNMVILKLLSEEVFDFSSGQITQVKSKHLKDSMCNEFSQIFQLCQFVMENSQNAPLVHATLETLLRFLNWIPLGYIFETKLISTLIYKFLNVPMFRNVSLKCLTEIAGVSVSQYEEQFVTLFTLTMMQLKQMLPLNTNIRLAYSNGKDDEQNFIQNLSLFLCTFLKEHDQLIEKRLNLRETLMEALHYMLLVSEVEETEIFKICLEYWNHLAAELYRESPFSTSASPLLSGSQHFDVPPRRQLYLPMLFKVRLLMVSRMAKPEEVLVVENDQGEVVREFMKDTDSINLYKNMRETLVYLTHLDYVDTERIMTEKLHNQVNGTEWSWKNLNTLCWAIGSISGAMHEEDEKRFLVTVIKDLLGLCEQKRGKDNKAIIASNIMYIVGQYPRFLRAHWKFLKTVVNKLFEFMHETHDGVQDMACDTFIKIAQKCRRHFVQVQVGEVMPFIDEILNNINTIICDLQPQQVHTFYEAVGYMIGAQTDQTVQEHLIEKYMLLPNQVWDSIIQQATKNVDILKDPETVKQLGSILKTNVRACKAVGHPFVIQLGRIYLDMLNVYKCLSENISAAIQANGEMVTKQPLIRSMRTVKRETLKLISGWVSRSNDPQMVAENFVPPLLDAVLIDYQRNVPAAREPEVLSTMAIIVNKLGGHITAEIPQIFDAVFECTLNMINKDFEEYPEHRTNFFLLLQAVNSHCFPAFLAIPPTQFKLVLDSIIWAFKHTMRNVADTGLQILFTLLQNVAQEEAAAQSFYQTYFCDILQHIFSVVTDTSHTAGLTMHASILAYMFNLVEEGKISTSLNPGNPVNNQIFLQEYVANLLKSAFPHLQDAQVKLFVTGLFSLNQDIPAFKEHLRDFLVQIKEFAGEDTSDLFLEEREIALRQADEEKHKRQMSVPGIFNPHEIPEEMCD

B1: MBP-45-532-Jacob (domain or fragment, rat, UniProt Q9EPI6 45-532, looked up)
chain: DHLLADAYSGHEGSPEMQPAPHNKRRLSLVSNGRYEGSISDEAVSGKTATEGPQPRVYTISREPALLPGSEAEAIELAVVKGRRQRERHPHHHSQPLRASPGSSREDISRPCQSWAGSRQGSKECPGCAKLVPGPSPRAFGLEQPPLPEASGRHKKLERMYSVDGVSDDVPIRTWFPKENPFSFQTATTTMQAISVFRGYAERKRRKRENDSASVIQRNFRKHLRMVGSRRVKAQTFAERRERSFSRSWSDPTPMKADTSHDSRDSSDLQSSHCTLDEACEDLDWDTEKGLEATACDTEGFLPPKVMLISSKVPKAEYIPTIIRRDDPSIIPILYDHEHATFEDILEEIEKKLNIYHKGAKIWKMLIFCQGGPGHLYLLKNKVATFAKVEKEEDMIHFWKRLSRLMSKVNPEPNVIHIMGCYILGNPNGEKLFQNLRTLMTPYKVTFESPLELSAQGKQMIETYFDFRLYRLWKSRQHSKLLDFDDVL
notes: Jacob (Nsmf), residues 45-532, truncated for protein stability; also called amylose-MBP-45-532-Jacob; Jacob fused to MBP; source: E. coli SHuffle (C3026), pMAL vector, coupled to amylose resin
B1: binds [1]; binds [2].

— article PMC7802242, “The nuclear lamina is a hub for the nuclear function of Jacob” (Molecular Brain, 2021)
